Assay results taken from PMC5577252.

Target: PSII-LHCII supercomplexes of sucrose gradient band α3 (α3G with glutaraldehyde) (pea (Pisum sativum L., endogenous in leaves)) (UniProt P06585)

- fast chlorophyll a fluorescence induction (OJIP), O–J curvature parameter C; control (sucrose gradient buffer with cations, paired): 0.35
- fast chlorophyll a fluorescence induction (OJIP), O–J curvature parameter C; no salts (salt-free buffer, unpaired): 0.14
- fast chlorophyll a fluorescence induction (OJIP), connectivity among PSII units parameter p; control (sucrose gradient buffer with cations, paired): 0.3
- fast chlorophyll a fluorescence induction (OJIP), connectivity among PSII units parameter p; no salts (salt-free buffer, unpaired): 0.13
- fast chlorophyll a fluorescence induction (OJIP), overall grouping probability p2G; control (sucrose gradient buffer with cations, paired): 0.21
- fast chlorophyll a fluorescence induction (OJIP), overall grouping probability p2G; no salts (salt-free buffer, unpaired): 0.15
- fast chlorophyll a fluorescence induction (OJIP), probability of connectivity between PSII units ω; control (sucrose gradient buffer with cations, paired): 0.2
- fast chlorophyll a fluorescence induction (OJIP), probability of connectivity between PSII units ω; no salts (salt-free buffer, unpaired): 0.06
Substance: PSII-LHCII supercomplexes of sucrose gradient band α3 (α3G with glutaraldehyde) (from UniProt P06585 1-344; P06006 1-353; P06004 15-473; P14226 82-329; P27520 38-265)
